In patent US20090130692A1:

Molecular target: bovine pancreatic trypsin (bovine) (UniProt P00760)
Experiment: inhibition of bovine trypsin, substrate Boc-Leu-Gly-Arg-pNA, tight-binding fit (Morrison); apparent Ki (Kiapp)

Sequence of bovine pancreatic trypsin (bovine) (P00760 24-246): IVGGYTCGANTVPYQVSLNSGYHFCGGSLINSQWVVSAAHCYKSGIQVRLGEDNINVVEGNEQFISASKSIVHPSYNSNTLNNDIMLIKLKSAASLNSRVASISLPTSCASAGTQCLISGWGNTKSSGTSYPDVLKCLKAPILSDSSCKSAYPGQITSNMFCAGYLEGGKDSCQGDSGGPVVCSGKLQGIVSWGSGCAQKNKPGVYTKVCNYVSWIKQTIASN

“barnase′-McoEeTI fusion protein (from UniProt P00648 48-157)” showed a Ki of 71 nM.
Work on “barnase′-EETI-II fusion protein (from UniProt P00648 48-157)” yielded a Ki of 9 nM.
